Reference: paper PMC6335422 (Nature Communications, 2019)
Primed or numbered codes have the meaning given here. Where no end group is shown, it is not given here. SUMO″ = SUMO fusion tag (N-terminal); SUMO = SUMO tag, N-terminal

T1: Erh1 (Erh1wt) (Schizosaccharomyces pombe, UniProt G2TRN4)
T1 construct: A region of Erh1 (residues 1–104) was amplified by PCR; made in house; host or cells: Escherichia coli BL21 (Gold)
T1 sequence (G2TRN4 1-104): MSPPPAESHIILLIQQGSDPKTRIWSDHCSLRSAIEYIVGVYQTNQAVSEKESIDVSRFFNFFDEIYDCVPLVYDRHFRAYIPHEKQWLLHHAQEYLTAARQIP

T2: Erh1 (residues 1-104), wild type (S. pombe, UniProt G2TRN4 1-104)
T2 construct: Erh1, S. pombe, residues 1-104, amplified from the S. pombe genome, in a modified pET28a vector without thrombin site (p28a); also called Erh1wt; Enhancer of rudimentary homolog 1; source: E. coli BL21 (Gold), purified (Ni-chelating resin, size-exclusion chromatography)
T2 sequence (looked up): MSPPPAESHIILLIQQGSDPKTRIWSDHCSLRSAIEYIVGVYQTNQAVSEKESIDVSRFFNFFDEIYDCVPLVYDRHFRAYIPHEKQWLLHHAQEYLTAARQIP

B1: SUMO-tagged Mmi1 95-122 Y97A (domain or fragment, S. pombe, UniProt O74958 95-122, looked up)
chain: GKADFSRHCTDYGHSYEWPYFRSLRRES
notes: also called Mmi1 Y97A; source: E. coli BL21 (Gold), purified (Ni-chelating resin, size-exclusion chromatography); not shown: SUMO, N-terminal, kept
B2: SUMO-tagged Mmi1 95-122 Y106A (domain or fragment, S. pombe, UniProt O74958 95-122, looked up)
chain: GKYDFSRHCTDAGHSYEWPYFRSLRRES
notes: also called Mmi1 Y106A; source: E. coli BL21 (Gold), purified (Ni-chelating resin, size-exclusion chromatography); not shown: SUMO, N-terminal, kept
B3: SUMO-tagged Mmi1 95-122 R119A (domain or fragment, S. pombe, UniProt O74958 95-122, looked up)
chain: GKYDFSRHCTDYGHSYEWPYFRSLARES
notes: also called Mmi1 R119A; source: E. coli BL21 (Gold), purified (Ni-chelating resin, size-exclusion chromatography); not shown: SUMO, N-terminal, kept
B4: SUMO-tagged Mmi1 95-122 Y110A (domain or fragment, S. pombe, UniProt O74958 95-122, looked up)
chain: GKYDFSRHCTDYGHSAEWPYFRSLRRES
notes: also called Mmi1 Y110A; source: E. coli BL21 (Gold), purified (Ni-chelating resin, size-exclusion chromatography); not shown: SUMO, N-terminal, kept
B5: SUMO-tagged Mmi1 95-122 Y114A (domain or fragment, S. pombe, UniProt O74958 95-122, looked up)
chain: GKYDFSRHCTDYGHSYEWPAFRSLRRES
notes: also called Mmi1 Y114A; source: E. coli BL21 (Gold), purified (Ni-chelating resin, size-exclusion chromatography); not shown: SUMO, N-terminal, kept
B6: SUMO-tagged Mmi1 95-122 H108A (domain or fragment, S. pombe, UniProt O74958 95-122, looked up)
chain: GKYDFSRHCTDYGASYEWPYFRSLRRES
notes: also called Mmi1 H108A; source: E. coli BL21 (Gold), purified (Ni-chelating resin, size-exclusion chromatography); not shown: SUMO, N-terminal, kept
B7: SUMO-tagged Mmi1 95-122 S100A (domain or fragment, S. pombe, UniProt O74958 95-122, looked up)
chain: GKYDFARHCTDYGHSYEWPYFRSLRRES
notes: also called Mmi1 S100A; source: E. coli BL21 (Gold), purified (Ni-chelating resin, size-exclusion chromatography); not shown: SUMO, N-terminal, kept
B8: SUMO-tagged Mmi1 95-122 F115A (domain or fragment, S. pombe, UniProt O74958 95-122, looked up)
chain: GKYDFSRHCTDYGHSYEWPYARSLRRES
notes: also called Mmi1 F115A; source: E. coli BL21 (Gold), purified (Ni-chelating resin, size-exclusion chromatography); not shown: SUMO, N-terminal, kept
B9: SUMO-tagged Mmi1 95-122 T104A (domain or fragment, S. pombe, UniProt O74958 95-122, looked up)
chain: GKYDFSRHCADYGHSYEWPYFRSLRRES
notes: also called Mmi1 T104A; source: E. coli BL21 (Gold), purified (Ni-chelating resin, size-exclusion chromatography); not shown: SUMO, N-terminal, kept
B10: SUMO-tagged Mmi1 95-122 F99A (domain or fragment, S. pombe, UniProt O74958 95-122, looked up)
chain: GKYDASRHCTDYGHSYEWPYFRSLRRES
notes: also called Mmi1 F99A; source: E. coli BL21 (Gold), purified (Ni-chelating resin, size-exclusion chromatography); not shown: SUMO, N-terminal, kept
B11: SUMO-tagged Mmi1 106-122 (domain or fragment, S. pombe, UniProt O74958 106-122, looked up)
chain: YGHSYEWPYFRSLRRES
notes: source: E. coli BL21 (Gold), purified (Ni-chelating resin, size-exclusion chromatography); not shown: SUMO, N-terminal, kept

How the values were obtained:
[1] = target: T1, Erh1 (Erh1wt); assay: Isothermal titration calorimetry (ITC), SUMO-tagged Mmi1 peptides titrated into wild-type Erh1; format: binding, S. pombe; settings: for -TΔS / ΔH (binding enthalpy): Erh1wt; for ΔH (binding enthalpy): single-site model; for binding / affinity for Erh1 (in words): ITC (Supplementary Table 1; Fig. 1d, f), relative to Mmi1^95–122
Experimental: The titration protocol consisted of a single initial injection of 1 µl, followed by 19 injections of 2 µl SUMO-tagged Mmi1 peptides into the sample cell containing Erh1 protein. Thermodynamic data were analyzed with a single-site binding model using MicroCal PEAQ-ITC Analysis Software provided by the manufacturer.

[2] = target: T2, Erh1 (residues 1-104), wild type; assay: ITC; SUMO-tagged Mmi1 peptides titrated into Erh1 in the sample cell; MicroCal iTC200, 293 K; 20 mM Tris-HCl pH 7.5, 150 mM NaCl; single-site binding model; settings: both partners purified
[3] = ITC, 293 K, 20 mM Tris-HCl pH 7.5, 150 mM NaCl, SUMO-tagged Mmi1 peptide

Molecule	-TΔS [1, 3] [kJ per mol]	ΔH (binding enthalpy) [1, 3] [kJ per mol]	binding / affinity for Erh1 (in words) [1]	KD (dissociation constant) ([1]; text and figures 1e, 1f, 3e, Erh1, ITC, 293 K, 20 mM Tris-HCl pH 7.5, 150 mM NaCl, SUMO-tagged Mmi1 peptide)	Kd [2] [nM]	stoichiometry N [2]
Mmi1F99A: Mmi1 peptide mutant F99A ({SUMO}-GKYDASRHCTDYGHSYEWPYFRSLRRES; not fully specified)	8.86	-42.6±1.83	reduced affinities for Erh1			
Mmi1F115A: Mmi1 peptide mutant F115A ({SUMO}-GKYDFSRHCTDYGHSYEWPYARSLRRES; not fully specified)	35.7	-68.0±0.673	reduced affinities for Erh1			
Mmi1H108A: Mmi1 peptide mutant H108A ({SUMO}-GKYDFSRHCTDYGASYEWPYFRSLRRES; not fully specified)	-21.2	-9.97±2.43				
Mmi1R119A: Mmi1 peptide mutant R119A ({SUMO}-GKYDFSRHCTDYGHSYEWPYFRSLARES; not fully specified)	13.1	-46.3±1.28	reduced			
Mmi1S100A: Mmi1 peptide mutant S100A ({SUMO}-GKYDFARHCTDYGHSYEWPYFRSLRRES; not fully specified)	6.04	-36.0±3.16				
Mmi1T104A: Mmi1 peptide mutant T104A ({SUMO}-GKYDFSRHCADYGHSYEWPYFRSLRRES; not fully specified)	22.8	-53.7±1.31				
Mmi1Y97A: Mmi1 peptide mutant Y97A ({SUMO}-GKADFSRHCTDYGHSYEWPYFRSLRRES; not fully specified)	13.8	-46.1±1.20	reduced affinities for Erh1			
Mmi1Y106A: Mmi1 peptide mutant Y106A ({SUMO}-GKYDFSRHCTDAGHSYEWPYFRSLRRES; not fully specified)	11.3	-43.8±2.35				
Mmi1Y110A: Mmi1 peptide mutant Y110A ({SUMO}-GKYDFSRHCTDYGHSAEWPYFRSLRRES; not fully specified)	246	-273±20.3				
Mmi1Y114A: Mmi1 peptide mutant Y114A ({SUMO}-GKYDFSRHCTDYGHSYEWPAFRSLRRES; not fully specified)	31.1	-61.8±1.07	reduced affinities for Erh1			
Mmi1^95–111: truncated Mmi1 peptide, residues 95–111 ({SUMO″}-GKYDFSRHCTDYGHSYE; not fully specified)			did not bind at all	no binding		
Mmi1^106–122: further truncated Mmi1 fragment, residues 106–122 ({SUMO″}-YGHSYEWPYFRSLRRES; not fully specified)	45.5	-73.6±2.69	decreased binding to Erh1			
B1					1750 ± 317	1.27
B2					1630 ± 473	1.36
B3					1220 ± 270	1.12
B4					15000 ± 2710	1
B5					3520 ± 323	0.97
B6					2780 ± 2150	1.36
B7					4730 ± 1620	1.36
B8					1800 ± 121	0.9
B9					3270 ± 425	1.45
B10					996 ± 355	1.38
B11					9940 ± 1190	0.89
